± gives the uncertainty stated by the source.

This note sets out measurements from the supplement of paper PMC7877785.

A short description of this series: self-splicing fitness, log relative to wild type (ln ratio); higher = more splicing; Tetrahymena group I intron in knt gene, E. coli kanamycin selection, DiMSum; sequences stand for … in CUCUCU…GGAGGGAAAAGUUAUCAGGCAUGCACCUGGUAGCUAGUCUUUAAACCAAUAGAUUGCAUCGGUUUAAAAGGCAAGACCGUCAAAUUGCGGGAAAGGGGUCAACAGCCGUUCAGUACCAAGUCUCAGGGGAAACUUUGAGAUGGCCUUGCAAAGGGUAUGGUAAUAAGCUGACGGACAUGGUCCUAACCACGCAGCCAAGUCCUAAGUCAACAGAUCUUCUGUUGAUAUGGAUGCAGUUCACAGACUAAAUGUCGGUCGGGGAAGAUGUAUUCUUCUCAUAAGAUAUAGUCGGACCUCUCCUUAAUGGGAGCUAGCGGAUGAAGUGAUGCAACACUGGAGCCGCUGGGAACUAAUUUGUAUGCGAAAGUAUAUUGAUUAGUUUUGGAGUACUCGUGGUCG
In short, it runs like this: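 Fitness was computed with DiMSum as the error-weighted combination of replicate fold changes, kanamycin versus none, each normalised to wild type. The library randomised all eight intron nucleotides of the P1ex region, with the intron placed in the knt kanamycin-resistance gene on pET-22b(+) in E. coli BL21(DE3). Six replicate transformations were grown overnight at 37°C or 30°C on LB agar with or without 25 μg/mL kanamycin, plus 100 μg/mL carbenicillin, 50 μM IPTG and 0.2% rhamnose. Pooled colonies were amplicon-sequenced on an Illumina HiSeq 2500.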

Take GGUAAGCAAUAUUACGUCGA: the “self-splicing fitness (ln)” value (37 °C) was -0.708 ± 0.25.

As to GGUAAGCAAUAUUACGUGAU, the “self-splicing fitness (ln)” value by setting is: (30 °C) -1.64 ± 0.099; (37 °C) -1.68 ± 0.12.

Turning to GGUAAGCAAUAUUACGUUUG, the “self-splicing fitness (ln)” value (37 °C) is -2.56 ± 0.21.

Turning to GGUCAGCAAUAUUACGAAGU, the “self-splicing fitness (ln)” value (30 °C) was -0.729 ± 0.076 and the “self-splicing fitness (ln)” value (37 °C) is -0.336 ± 0.1.

On to GGUCAGCAAUAUUACGAGAA, for which the “self-splicing fitness (ln)” value runs as follows: (30 °C) -1.23 ± 0.47; (37 °C) -2.01 ± 0.38.

As for GGUCAGCAAUAUUACGAUCC, the “self-splicing fitness (ln)” value (37 °C) was -0.912 ± 0.18.

For GGUCAGCAAUAUUACGAUCU, the “self-splicing fitness (ln)” value reads like this: (30 °C) -1.8 ± 0.17; (37 °C) -1.93 ± 0.24.

For the sequence GGUCAGCAAUAUUACGCCAA, the “self-splicing fitness (ln)” value is -1.17 ± 0.25 (30 °C) and -2.06 ± 0.22 (37 °C).

As for GGUCAGCAAUAUUACGCCGA, the “self-splicing fitness (ln)” value (37 °C) was -2.65 ± 0.48.

On to GGUCAGCAAUAUUACGCUGU, for which the “self-splicing fitness (ln)” value is -3.34 ± 0.21 (30 °C) and -1.62 ± 0.18 (37 °C).

For the sequence GGUCAGCAAUAUUACGGAAG, the “self-splicing fitness (ln)” value (30 °C) was -2.27 ± 0.2 and the “self-splicing fitness (ln)” value (37 °C) was -1.58 ± 0.23.

On to GGUCAGCAAUAUUACGGACG, for which the “self-splicing fitness (ln)” value reads like this: (30 °C) -0.915 ± 0.11; (37 °C) 0.0247 ± 0.16.

With GGUCAGCAAUAUUACGGCCA, the “self-splicing fitness (ln)” value reads like this: (30 °C) -2.33 ± 0.19; (37 °C) -0.589 ± 0.17.

In the case of GGUCAGCAAUAUUACGGUUU, the “self-splicing fitness (ln)” value was -0.421 ± 0.074 (30 °C) and 0.264 ± 0.099 (37 °C).

With GGUCAGCAAUAUUACGUAAA, the “self-splicing fitness (ln)” value (30 °C) was 0.301 ± 0.14 and the “self-splicing fitness (ln)” value (37 °C) was found to be 0.672 ± 0.18.

As to GGUCAGCAAUAUUACGUAAU, the “self-splicing fitness (ln)” value by setting is: (30 °C) -0.42 ± 0.11; (37 °C) 0.68 ± 0.14.

In the case of GGUCAGCAAUAUUACGUAGA, the “self-splicing fitness (ln)” value (30 °C) was -0.689 ± 0.081 and the “self-splicing fitness (ln)” value (37 °C) is -0.164 ± 0.096.

Regarding GGUCAGCAAUAUUACGUAGG, the “self-splicing fitness (ln)” value (30 °C) was -2.33 ± 0.15 and the “self-splicing fitness (ln)” value (37 °C) was -1.84 ± 0.18.

Turning to GGUCAGCAAUAUUACGUCUU, the “self-splicing fitness (ln)” value came to 0.322 ± 0.078 (30 °C) and 0.402 ± 0.089 (37 °C).

For the sequence GGUCAGCAAUAUUACGUUAU, the “self-splicing fitness (ln)” value is -0.97 ± 0.092 (30 °C) and -0.158 ± 0.1 (37 °C).

Turning to GGUCAGCAAUAUUACGUUUC, the “self-splicing fitness (ln)” value is 0.000828 ± 0.13 (30 °C) and -0.437 ± 0.14 (37 °C).

Take GGUGAGCAAUAUUACGAAAC: the “self-splicing fitness (ln)” value reads like this: (30 °C) -2.41 ± 0.24; (37 °C) -1.02 ± 0.27.

Take GGUGAGCAAUAUUACGAGGU: the “self-splicing fitness (ln)” value is -2.22 ± 0.29 (30 °C) and -1.68 ± 0.27 (37 °C).

On to GGUGAGCAAUAUUACGAUAU, for which the “self-splicing fitness (ln)” value reads like this: (30 °C) -2.31 ± 0.2; (37 °C) -1.83 ± 0.23.

Take GGUGAGCAAUAUUACGAUCA: the “self-splicing fitness (ln)” value is -1.24 ± 0.13 (30 °C) and -0.356 ± 0.15 (37 °C).

Take GGUGAGCAAUAUUACGCAUG: the “self-splicing fitness (ln)” value runs as follows: (30 °C) -1.48 ± 0.11; (37 °C) -0.697 ± 0.15.

For GGUGAGCAAUAUUACGCAUU, the “self-splicing fitness (ln)” value is, setting by setting: (30 °C) -1.28 ± 0.25; (37 °C) -1.89 ± 0.34.

For the sequence GGUGAGCAAUAUUACGCGAU, the “self-splicing fitness (ln)” value (30 °C) is -3.7 ± 0.46.

Turning to GGUGAGCAAUAUUACGCUAG, under “37 °C”, the “self-splicing fitness (ln)” value is -1.65 ± 0.45.

For GGUGAGCAAUAUUACGCUCG, under “37 °C”, the “self-splicing fitness (ln)” value is -1.37 ± 0.4.

For the sequence GGUGAGCAAUAUUACGCUGG, the “self-splicing fitness (ln)” value is, setting by setting: (30 °C) -2.87 ± 0.19; (37 °C) -1.12 ± 0.16.

With GGUGAGCAAUAUUACGCUGU, the “self-splicing fitness (ln)” value (30 °C) is -3.68 ± 0.34 and the “self-splicing fitness (ln)” value (37 °C) is -1.64 ± 0.27.

For the sequence GGUGAGCAAUAUUACGGACA, the “self-splicing fitness (ln)” value runs as follows: (30 °C) -1.48 ± 0.17; (37 °C) -0.688 ± 0.16.

Regarding GGUGAGCAAUAUUACGGCGA, the “self-splicing fitness (ln)” value (30 °C) was -1.1 ± 0.12 and the “self-splicing fitness (ln)” value (37 °C) was -1.39 ± 0.14.

GGUGAGCAAUAUUACGGCGG: the “self-splicing fitness (ln)” value was -3.44 ± 0.23 (30 °C) and -1.73 ± 0.35 (37 °C).

As for GGUGAGCAAUAUUACGGGAA, the “self-splicing fitness (ln)” value runs as follows: (30 °C) -1.89 ± 0.3; (37 °C) -2.5 ± 0.48.

On to GGUGAGCAAUAUUACGUAAA, for which the “self-splicing fitness (ln)” value was -2.79 ± 0.3 (30 °C) and -1.45 ± 0.31 (37 °C).

For the sequence GGUGAGCAAUAUUACGUAAC, the “self-splicing fitness (ln)” value by setting is: (30 °C) -2.35 ± 0.43; (37 °C) -1.22 ± 0.28.

On to GGUGAGCAAUAUUACGUUAA, for which the “self-splicing fitness (ln)” value was -1.89 ± 0.18 (30 °C) and -1.09 ± 0.24 (37 °C).

As for GGUGAGCAAUAUUACGUUUA, the “self-splicing fitness (ln)” value is -3.01 ± 0.28 (30 °C) and -1.44 ± 0.18 (37 °C).
